These results are taken from FireProtDB (doi:10.1016/j.jmb.2009.05.011).

The labels stand for the following.
B1: Dihydrolipoyllysine-residue succinyltransferase component of 2-oxoglutarate dehydrogenase complex, P0AFG6 (parent)
chain: MSSVDILVPDLPESVADATVATWHKKPGDAVVRDEVLVEIETDKVVLEVPASADGILDAVLEDEGTTVTSRQILGRLREGNSAGKETSAKSEEKASTPAQRQQASLEEQNNDALSPAIRRLLAEHNLDASAIKGTGVGGRLTREDVEKHLAKAPAKESAPAAAAPAAQPALAARSEKRVPMTRLRKRVAERLLEAKNSTAMLTTFNEVNMKPIMDLRKQYGEAFEKRHGIRLGFMSFYVKAVVEALKRYPEVNASIDGDDVVYHNYFDVSMAVSTPRGLVTPVLRDVDTLGMADIEKKIKELAVKGRDGKLTVEDLTGGNFTITNGGVFGSLMSTPIINPPQSAILGMHAIKDRPMAVNGQVEILPMMYLALSYDHRLIDGRESVGFLVTIKELLEDPTRLLLDV

In this data set the parent is B1. To be noted: Escherichia coli (strain K12), pH 7, structure 1W4H, whole UniProt chain shown.
[1] abbreviates: 10 °C, GdnHCl, CD, 3-[morpholino]propanesulfonic acid 50 mM, NaCl 200 mM.
[2] abbreviates: 10 °C, GdnHCl, Fluorescence, 3-[morpholino]propanesulfonic acid 50 mM, NaCl 200 mM.
[3] abbreviates: Thermal, CD, Potassium phosphate 50 mM, KCl 200 mM.

“And” between values parts separate entries of the source, which are not always exact repeats. Equal values may be shown once.

As to I118A, under setting [1], the “ddG of mutation (higher = less stable)” value stood at 1.24 kcal/mol, the denaturant m value was determined as 0.65 kcal/mol/M, the “denaturant midpoint (higher = more stable)” value (“denaturant midpoint” for short) was determined as 2.09 M and the unfolding free energy worked out at 1.36 kcal/mol. Under setting [2], the denaturant m value is 0.46 kcal/mol/M and 0.2 kcal/mol/M; the unfolding free energy was determined as 1.18 kcal/mol.
In the case of I118V, under setting [3], the melting temperature (Tm) came to 53.8 °C, the “ddG of mutation (higher = less stable)” value was determined as 0.03 kcal/mol and the “unfolding enthalpy (van 't Hoff)” value turned out to be 26 kcal/mol.
As to L127A, under setting [1], the “ddG of mutation (higher = less stable)” value is 1.37 kcal/mol, the denaturant m value was found to be 0.63 kcal/mol/M, the “denaturant midpoint” value was 1.95 M and the unfolding free energy turned out to be 1.23 kcal/mol. Under setting [2], the denaturant m value was 0.41 kcal/mol/M and 0.18 kcal/mol/M; the unfolding free energy came out at 1.2 kcal/mol. Moreover, under setting [3], the Tm is 29.2 °C, the “ddG of mutation (higher = less stable)” value came to 1.9 kcal/mol and the “unfolding enthalpy (van 't Hoff)” value is 12 kcal/mol.
Consider V146A, for which, under setting [2], the denaturant m value is 0.48 kcal/mol/M and 0.16 kcal/mol/M; the unfolding free energy turned out to be 0.47 kcal/mol. Under setting [3], the Tm turned out to be 27.9 °C, the “ddG of mutation (higher = less stable)” value worked out at 2.02 kcal/mol and the “unfolding enthalpy (van 't Hoff)” value came out at 9 kcal/mol.
On to T135A, for which, under setting [1], the “ddG of mutation (higher = less stable)” value is 1.68 kcal/mol, the denaturant m value was 0.69 kcal/mol/M, the “denaturant midpoint” value is 1.51 M and the unfolding free energy turned out to be 1.04 kcal/mol. Besides, the unfolding free energy under setting [2] is 0.78 kcal/mol. Besides, under setting [3], the midpoint of thermal melting (Tm) was 36.4 °C, the “ddG of mutation (higher = less stable)” value is 1.36 kcal/mol and the “unfolding enthalpy (van 't Hoff)” value was 9 kcal/mol.
For T135S, under setting [3], the melting temperature (Tm) amounted to 50.4 °C, the “ddG of mutation (higher = less stable)” value worked out at 0.29 kcal/mol and the “unfolding enthalpy (van 't Hoff)” value is 21 kcal/mol.
With L121A, under setting [1], the “ddG of mutation (higher = less stable)” value came to 1.6 kcal/mol, the denaturant m value was 0.64 kcal/mol/M, the “denaturant midpoint” value was determined as 1.63 M and the unfolding free energy turned out to be 1.04 kcal/mol. In addition, under setting [2], the denaturant m value was 0.46 kcal/mol/M and 0.16 kcal/mol/M; the unfolding free energy came out at 0.9 kcal/mol. For the same variant, under setting [3], the Tm is 32.2 °C, the “ddG of mutation (higher = less stable)” value stood at 1.67 kcal/mol and the “unfolding enthalpy (van 't Hoff)” value is 16 kcal/mol.
As to A151G, under setting [3], the Tm was determined as 53.2 °C, the “ddG of mutation (higher = less stable)” value was determined as 0.07 kcal/mol and the “unfolding enthalpy (van 't Hoff)” value was determined as 21 kcal/mol.
As for A129G, under setting [1], the “ddG of mutation (higher = less stable)” value amounted to 0.56 kcal/mol, the denaturant m value was found to be 0.72 kcal/mol/M, the “denaturant midpoint” value is 3.07 M and the unfolding free energy was 2.21 kcal/mol. Also, under setting [2], the denaturant m value was 0.5 kcal/mol/M and 0.2 kcal/mol/M; the unfolding free energy was 2.22 kcal/mol. For the same variant, under setting [3], the midpoint of thermal melting (Tm) is 46.5 °C, the “ddG of mutation (higher = less stable)” value stood at 0.58 kcal/mol and the “unfolding enthalpy (van 't Hoff)” value is 22 kcal/mol.
Turning to L114A, under setting [1], the “ddG of mutation (higher = less stable)” value was 0.9 kcal/mol, the denaturant m value amounted to 0.71 kcal/mol/M, the “denaturant midpoint” value amounted to 2.6 M and the unfolding free energy worked out at 1.85 kcal/mol. In addition, under setting [2], the denaturant m value is 0.5 kcal/mol/M and 0.18 kcal/mol/M; the unfolding free energy came out at 1.7 kcal/mol. For the same variant, under setting [3], the Tm was determined as 41.9 °C, the “ddG of mutation (higher = less stable)” value amounted to 0.94 kcal/mol and the “unfolding enthalpy (van 't Hoff)” value was 20 kcal/mol.
Turning to L114W, under setting [1], the denaturant m value stood at 0.67 kcal/mol/M, the “denaturant midpoint” value was determined as 3.15 M and the unfolding free energy was 2.11 kcal/mol. Under setting [2], the unfolding free energy was found to be 2.22 kcal/mol.
Regarding L141A, under setting [2], the denaturant m value worked out at 0.48 kcal/mol/M and the unfolding free energy was found to be 0.46 kcal/mol. For the same variant, under setting [3], the Tm was determined as 26.4 °C, the “ddG of mutation (higher = less stable)” value amounted to 2.12 kcal/mol and the “unfolding enthalpy (van 't Hoff)” value is 10 kcal/mol.
Regarding H149A, under setting [3], the melting temperature (Tm) worked out at 55 °C, the “ddG of mutation (higher = less stable)” value is -0.06 kcal/mol and the “unfolding enthalpy (van 't Hoff)” value came to 22 kcal/mol.
For H149G, under setting [1], the “ddG of mutation (higher = less stable)” value is 1.87 kcal/mol, the denaturant m value came to 0.64 kcal/mol/M, the “denaturant midpoint” value was 1.25 M and the unfolding free energy turned out to be 0.8 kcal/mol. In addition, under setting [2], the denaturant m value was 0.45 kcal/mol/M and 0.21 kcal/mol/M; the unfolding free energy was 0.93 kcal/mol. In addition, under setting [3], the Tm amounted to 33.9 °C, the “ddG of mutation (higher = less stable)” value was 1.58 kcal/mol and the “unfolding enthalpy (van 't Hoff)” value is 8 kcal/mol.
On to A131G, for which, under setting [1], the “ddG of mutation (higher = less stable)” value worked out at 0.52 kcal/mol, the denaturant m value came out at 0.71 kcal/mol/M, the “denaturant midpoint” value amounted to 3.12 M and the unfolding free energy came out at 2.22 kcal/mol. Besides, under setting [2], the denaturant m value was 0.43 kcal/mol/M and 0.28 kcal/mol/M; the unfolding free energy came to 2.44 kcal/mol. Also, under setting [3], the Tm was 48.5 °C, the “ddG of mutation (higher = less stable)” value worked out at 0.43 kcal/mol and the “unfolding enthalpy (van 't Hoff)” value is 21 kcal/mol.
Take V137G: under setting [1], the “ddG of mutation (higher = less stable)” value is 0.98 kcal/mol, the denaturant m value came out at 0.73 kcal/mol/M, the “denaturant midpoint” value came out at 2.49 M and the unfolding free energy amounted to 1.82 kcal/mol. For the same variant, under setting [2], the denaturant m value was 0.47 kcal/mol/M and 0.24 kcal/mol/M; the unfolding free energy is 2.03 kcal/mol. Also, under setting [3], the Tm is 43.1 °C, the “ddG of mutation (higher = less stable)” value came out at 0.84 kcal/mol and the “unfolding enthalpy (van 't Hoff)” value is 18 kcal/mol.
S115G: under setting [1], the “ddG of mutation (higher = less stable)” value was found to be 0.57 kcal/mol, the denaturant m value was 0.7 kcal/mol/M, the “denaturant midpoint” value came out at 3.05 M and the unfolding free energy was determined as 2.14 kcal/mol. Moreover, under setting [2], the denaturant m value worked out at 0.21 kcal/mol/M and the unfolding free energy was determined as 2.31 kcal/mol. Besides, under setting [3], the Tm was found to be 53.6 °C, the “ddG of mutation (higher = less stable)” value came out at 0.47 kcal/mol and the “unfolding enthalpy (van 't Hoff)” value is 21 kcal/mol.
Consider H125W, for which, under setting [1], the denaturant m value turned out to be 0.7 kcal/mol/M, the “denaturant midpoint” value came to 3.96 M and the unfolding free energy stood at 2.77 kcal/mol. The unfolding free energy under setting [2] worked out at 2.55 kcal/mol. Under setting [3], the midpoint of thermal melting (Tm) came to 54.1 °C and the “unfolding enthalpy (van 't Hoff)” value amounted to 25 kcal/mol.
Take P116A: under setting [3], the midpoint of thermal melting (Tm) worked out at 59.1 °C, the “ddG of mutation (higher = less stable)” value is -0.38 kcal/mol and the “unfolding enthalpy (van 't Hoff)” value stood at 24 kcal/mol.
As to T142S, under setting [2], the denaturant m value is 0.53 kcal/mol/M and 0.2 kcal/mol/M; the unfolding free energy is 1.45 kcal/mol.
On to I132V, for which, under setting [1], the “ddG of mutation (higher = less stable)” value came to 0.7 kcal/mol, the denaturant m value was determined as 0.73 kcal/mol/M, the “denaturant midpoint” value came out at 2.88 M and the unfolding free energy amounted to 2.1 kcal/mol. Under setting [2], the denaturant m value is 0.47 kcal/mol/M. Also, under setting [3], the Tm was 44.4 °C, the “ddG of mutation (higher = less stable)” value is 0.75 kcal/mol and the “unfolding enthalpy (van 't Hoff)” value was 22 kcal/mol.
Take L150A: under setting [1], the “ddG of mutation (higher = less stable)” value is 0.6 kcal/mol and 0.74 kcal/mol; the denaturant m value is 0.71 kcal/mol/M and 0.69 kcal/mol/M; the “denaturant midpoint” value is 3.02 M and 1.98 M; the unfolding free energy is 2.14 kcal/mol and 1.37 kcal/mol. For the same variant, the unfolding free energy under setting [2] was 2.13 kcal/mol and 1.46 kcal/mol. Further, under setting [3], the “ddG of mutation (higher = less stable)” value is 0.57 kcal/mol and 1.18 kcal/mol; the “unfolding enthalpy (van 't Hoff)” value is 23 kcal/mol and 18 kcal/mol.
Take A113G: under setting [3], the midpoint of thermal melting (Tm) worked out at 53.6 °C, the “ddG of mutation (higher = less stable)” value was determined as 0.04 kcal/mol and the “unfolding enthalpy (van 't Hoff)” value stood at 23 kcal/mol.
With D145N, the denaturant m value under setting [2] stood at 0.17 kcal/mol/M. Besides, under setting [3], the melting temperature (Tm) was 13.8 °C, the “ddG of mutation (higher = less stable)” value turned out to be 3.1 kcal/mol and the “unfolding enthalpy (van 't Hoff)” value came out at 5 kcal/mol.
Regarding A117G, under setting [3], the midpoint of thermal melting (Tm) was 49.4 °C, the “ddG of mutation (higher = less stable)” value worked out at 0.37 kcal/mol and the “unfolding enthalpy (van 't Hoff)” value is 23 kcal/mol.
A123G: under setting [1], the “ddG of mutation (higher = less stable)” value stood at 0.93 kcal/mol, the denaturant m value worked out at 0.72 kcal/mol/M, the “denaturant midpoint” value was 2.55 M and the unfolding free energy was determined as 1.84 kcal/mol. In addition, under setting [2], the denaturant m value is 0.42 kcal/mol/M and 0.23 kcal/mol/M; the unfolding free energy came to 1.81 kcal/mol. Under setting [3], the Tm was 40.8 °C, the “ddG of mutation (higher = less stable)” value was determined as 1.02 kcal/mol and the “unfolding enthalpy (van 't Hoff)” value was determined as 20 kcal/mol.

As usually defined, the Tm is the temperature at the midpoint of the melting transition.
